One data set concerns CDC6. As to the kind of experiment: QPCR of CDC6 in transfected HEK293 cells. Particulars: 48 h, relative to U6.milacZ. It is filed as cell-based, human. Here is the method:
The expression of SMAD1, SMAD5 and CDC6 was measured by QPCR in HEK293 cells using TaqMan probes specific to each investigated gene. To do that, U6.milacZ (negative control), H1.mir-675, U6.mir-675-3p or U6.mir-675-5p expressing constructs were transfected into HEK293 cells, and total RNA was extracted 48h after transfection. As a result, U6.mir-675-3p reduced SMAD1 levels by an average of 32±6% (P<0.044, ANOVA, N=3) and SMAD5 levels by an average of 35±6% (P<0.0013, ANOVA, N=3). On the other hand, H1.mir-675 and U6.mir-675-5p repressed CDC6 levels by an average of 38±4% (P<0.0034, ANOVA, N=3) and 36±7% (P<0.0048, ANOVA, N=3), respectively. Results were reported as relative gene expression (ΔΔCq)±SEM of three replicates (N=3) relative to gene expression in cells transfected with U6.milacZ, with each QPCR assay performed in triplicate. All results were quantified using as reference gene the house keeping gene RPL13A.
Along with a previous study showing the beneficial effect of mir-675 on regeneration and differentiation of injured mouse skeletal muscles [Dey et al., Genes Dev. […] QPCR was used to measure the expression of SMAD1, SMAD5 and CDC6 in HEK293 cells using TaqMan probes specific to each investigated gene. […] All results were quantified using as reference gene the house keeping gene RPL13A. […]

A further data set concerns mir-675-5p. As to the kind of experiment: TaqMan QRT-PCR of mature mir-675-5p from transfected constructs in HEK293 cells. The class given is cell-based, human. From the text:
RNA Extraction. RNA from HEK293 cells was extracted for Northern blot assay and QPCR. The miRVANA miRNA isolation kit (ThermoFisher Scientific) was used according to manufacturer's directions to extract total RNA encompassing small RNAs, such as miRNAs. To extract RNA from C57BL/6 skeletal muscles, cryopreserved muscles were crushed under suboptimal temperatures using liquid nitrogen and using mortar and pestle. Crushed muscles were then lysed using […] of miRVANA miRNA isolation kit lysis buffer, a TissueLyser and 1.0 mm zirconia beads (Biospec). Muscle was homogenized at 30 Hz for 30 sec with 10 sec rest. This was repeated 3 times.
TaqMan Gene Expression Assay. QRT-PCR was carried out to quantify the expression of pri-mir-675, mir-675-5p and mi405 using TaqMan probes (ThermoFisher Scientific). Experiments were started by eliminating genomic DNA from the RNA preparations, and then cDNA was generated using the High-Capacity cDNA Reverse Transcription Kit (Applied Biosystems) following manufacturer's instructions. Within the same cDNA reaction, 1×RT random hexamer primers were used to generate the cDNA for RPL13A, used as a reference gene, and for pri-mir-675. To generate the cDNA for mir-675, the RT mir-675 reverse primer provided by ThermoFisher Scientific was used. For mi405, the mi405 qPCR protocol was done as it was previously described [Wallace et al., Mol. Ther. Methods Clin. Dev. 8: 121-30 (2018)]. To quantify mir-675 and mi405 levels, RNA was extracted using the total RNA protocol for the mirVana miRNA Isolation Kit (Ambion) from HEK293 cells. cDNA was generated using the High-Capacity cDNA Reverse Transcription Kit (Applied Biosystems) using a mix of random hexamer primers and specific reverse primer for pri-mir-675 and mir-675-5p. For mi405, 200 nM of the stem-loop forming primer (5′-[…]-3′) (SEQ ID NO: 144) was also used for the RT step. A custom TaqMan assay (Applied Biosystems) including 1.5 μM of Forward primer (5′-[…]-3′) (SEQ ID NO: 145), 0.7 μM of Reverse primer (5′-GTGCAGGGTCCGAGGT-3′) (SEQ ID NO: 146), and 0.2 μM of mi405 probe (5′-6FAM-ATACGACGTCCAGGAT-3′) (SEQ ID NO: 147) was then run using the CFX Connect Real Time system apparatus (Bio-Rad). RPL13A (Mm02526700_g1; Applied Biosystems) served as the reference gene. The TaqMan gene expression assay consisted of using the TaqMan Gene Expression Master mix and TaqMan probes purchased from ThermoFisher Scientific. 1× of probe was mixed with 1× of the TaqMan Gene Expression Master mix (ThermoFisher Scientific), and with 20 ng of cDNA. The mir-675- and mi405-specific primers and probes were designed to quantify only the mir-675-5p and mi405 mature sequence (see TaqMan Gene Expression Master mix protocol).

This note sets out measurements from US20240093191A1, “COMPOSITIONS AND METHODS FOR TREATING DISEASE ASSOCIATED WITH DUX4 OVEREXPRESSION” (RESEARCH INSTITUTE AT NATIONWIDE CHILDREN'S HOSPITAL, priority 2021, published 2024).

B1: H1.mir-675: commercially available H1 promoter mir-675 expression plasmid (SBI Biosciences) (nucleic acid)
DNA: GAACGCTGACGTCATCAACCCGCTCCAAGGAATCGCGGGCCCAGTGTCACTAGGCGGGAACACCCAGCGCGCGTGCGCCCTGGCAGGAAGATGGCTGTGAGGGACAGGGGAGTGGCGCCCTGCAATATTTGCATGTCGCTATGTGTTCTGGGAAATCACCATAAACGTGAAATGTCTTTGGATTTGGGAATCTTATAAGTTCTGTATGAGACCACCCCCCAGGGTCTGGTGCGGAGAGGGCCCACAGTGGACTTGGTGACGCTGTATGCCCTCACCGCTCAGCCCCTGGGGAATTCTTCGATTCTGCTTTTTT
With B1, the “repression of CDC6 levels” value in the data set with CDC6 was 38±4%. Moreover, the “mir-675-5p levels compared to U6.mir-675” value with mir-675-5p (23 mer mature mir-675-5p, HEK293, 24 h post-transfection) was 232±35%. The “mir-675-5p overexpressed levels compared to milacZ sample” value in the data set with mir-675-5p (HEK293 co-transfected with CMV.DUX4-FL/CMV.eGFP) was roughly 2000 fold.
